Results published in patent US20240376151A1, “STAPLED PEPTIDES AND METHODS THEREOF” (FOG PHARMACEUTICALS, INC., priority 2022, published 2024).

Tests used:
beta-catenin = target: T1, beta-catenin (Homo sapiens, UniProt P35222); experiment: Phage Library Screening with NGS, beta-catenin; format: binding; conditions: for Target Concentration 10 (phage screen NGS readout): beta-catenin target concentration 10; for Target Concentration 10 (phage screen NGS readout) / Target Concentration 30 (phage screen NGS readout) / Target Concentration 100 (phage screen NGS readout) / Target Concentration 300 (phage screen NGS readout): no competitor; for Target Concentration 30 (phage screen NGS readout): beta-catenin target concentration 30; for Target Concentration 100 (phage screen NGS readout): beta-catenin target concentration 100; for Target Concentration 300 (phage screen NGS readout): beta-catenin target concentration 300; for Target Concentration 1000 (phage screen NGS readout): beta-catenin target concentration 1000
T1 construct: made in house; host or cells: E. coli BL21 (DE3) pLysS
T1 sequence (P35222 134-665): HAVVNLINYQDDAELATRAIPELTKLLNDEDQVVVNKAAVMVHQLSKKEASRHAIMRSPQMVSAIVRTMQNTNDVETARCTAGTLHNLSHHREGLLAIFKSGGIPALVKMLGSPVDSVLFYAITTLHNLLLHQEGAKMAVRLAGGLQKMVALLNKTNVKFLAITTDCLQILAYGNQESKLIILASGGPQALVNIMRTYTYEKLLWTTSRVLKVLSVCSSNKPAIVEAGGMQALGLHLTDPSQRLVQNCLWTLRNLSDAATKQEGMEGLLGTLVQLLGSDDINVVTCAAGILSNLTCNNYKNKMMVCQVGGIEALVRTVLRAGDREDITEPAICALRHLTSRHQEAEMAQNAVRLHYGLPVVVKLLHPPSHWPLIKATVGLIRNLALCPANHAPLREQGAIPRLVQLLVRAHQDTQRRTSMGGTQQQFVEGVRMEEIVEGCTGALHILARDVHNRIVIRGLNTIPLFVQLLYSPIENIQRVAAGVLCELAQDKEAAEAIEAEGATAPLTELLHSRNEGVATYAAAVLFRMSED

RNF31 PUB domain = target: T2, RNF31 PUB domain (Homo sapiens, UniProt Q96EP0); experiment: Phage Library Screening with NGS, RNF31 PUB domain; format: binding; conditions: for Phage library screen NGS readout, BLANK: clusters C41-C45
T2 construct: MBP-TEV (N, cleaved yes); made in house; host or cells: E. coli BL21 (DE3) pLysS
T2 sequence (Q96EP0 1-179): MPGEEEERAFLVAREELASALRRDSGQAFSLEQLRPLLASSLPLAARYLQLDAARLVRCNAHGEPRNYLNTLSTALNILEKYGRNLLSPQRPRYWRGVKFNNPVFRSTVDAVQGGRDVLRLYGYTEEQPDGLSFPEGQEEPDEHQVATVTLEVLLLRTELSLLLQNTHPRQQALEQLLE

Row | Target Concentration BLANK (phage screen NGS readout) (beta-catenin; first column) | Target Concentration BLANK (phage screen NGS readout) (beta-catenin; fourth column) | Target Concentration BLANK (phage screen NGS readout) (beta-catenin; second column) | Target Concentration BLANK (phage screen NGS readout) (beta-catenin; third column) | Target Concentration 10 (phage screen NGS readout) (beta-catenin) | Target Concentration 30 (phage screen NGS readout) (beta-catenin) | Target Concentration 100 (phage screen NGS readout) (beta-catenin) | Target Concentration 300 (phage screen NGS readout) (beta-catenin) | Target Concentration 1000 (phage screen NGS readout) (beta-catenin; first 1000 column) | Target Concentration 1000 (phage screen NGS readout) (beta-catenin; second 1000 column) | Molecule | other results
1 | 0 | 0 | 0 | 0 | 0 | 1 | 10 | 15 | 28 | 15 | DPAFLDCHIAAWTCNEF | –
2 | 0 | 0 | 0 | 0 | 0 | 0 | 0 | 0 | 7 | 0 | DPAIIHCYQAAFQCQYM | –
3 | 0 | 0 | 0 | 0 | 10 | 0 | 37 | 39 | 51 | 52 | DPAEAECILAAHICNIS | –
4 | 1 | 0 | 4 | 0 | 6 | 24 | 148 | 448 | 431 | 449 | DPAEWACEHAALTCWDQ | –
5 | 0 | 0 | 0 | 0 | 0 | 0 | 0 | 15 | 38 | 26 | DPAEIICYEAAFLCQYQ | –
6 | 0 | 0 | 0 | 0 | 0 | 0 | 31 | 42 | 40 | 51 | DPAEVDCIMAAHICVWD | –
7 | 0 | 0 | 2 | 1 | 13 | 27 | 122 | 158 | 246 | 246 | CC(=O)N[C@@H](CC(=O)O)C(=O)N1CCC[C@H]1C(=O)N[C@@H](C)C(=O)N[C@@H](CC(C)C)C(=O)N[C@@H](Cc1c[nH]c2ccccc12)C(=O)N[C@@H](CCC(N)=O)C(=O)N[C@@H](CS)C(=O)N[C@@H](CCC(=O)O)C(=O)N[C@@H](Cc1c[nH]cn1)C(=O)N[C@@H](C)C(=O)N[C@@H](C)C(=O)N[C@@H](CC(C)C)C(=O)N[C@@H](CC(C)C)C(=O)N[C@@H](CS)C(=O)N[C@@H](CC(=O)O)C(=O)N[C@H](C(=O)N[C@@H](Cc1c[nH]cn1)C(N)=O)C(C)C | –
8 | 0 | 6 | 2 | 0 | 78 | 201 | 907 | 1681 | 1740 | 1609 | DPAEWQCEHAALLCEQQ | –
9 | 0 | 0 | 0 | 0 | 0 | 0 | 21 | 15 | 46 | 22 | DPAEADCMMAAHICSNI | –
10 | 0 | 0 | 0 | 0 | 0 | 0 | 1 | 6 | 4 | 5 | DPAVLQCYEAAFICEYM | –
11 | 0 | 0 | 0 | 0 | 0 | 6 | 22 | 21 | 25 | 55 | DPAILDCQLAAMDCSTW | –
12 | 1 | 1 | 0 | 0 | 2 | 4 | 29 | 85 | 111 | 150 | DPAIMACYEAAYLCDYI | –
13 | 0 | 0 | 0 | 0 | 8 | 26 | 67 | 109 | 142 | 130 | DPAEVECMLAAHVCRAF | –
14 | – | – | – | – | – | – | – | – | – | – | DPAAEDCHIAAMVCMTY | Phage library screen NGS readout, Target Concentration 10 (RNF31 PUB domain; RNF31 PUB domain clusters C41-C45, target concentration 10): 0; Phage library screen NGS readout, Target Concentration 30 (RNF31 PUB domain; RNF31 PUB domain clusters C41-C45, target concentration 30): 4; Phage library screen NGS readout, Target Concentration 100 (RNF31 PUB domain; RNF31 PUB domain clusters C41-C45, target concentration 100): 0; Phage library screen NGS readout, Target Concentration 300 (RNF31 PUB domain; RNF31 PUB domain clusters C41-C45, target concentration 300): 12; Phage library screen NGS readout, Target Concentration 1000 (RNF31 PUB domain; RNF31 PUB domain clusters C41-C45, target concentration 1000, first column): 46; Phage library screen NGS readout, Target Concentration 1000 (RNF31 PUB domain; RNF31 PUB domain clusters C41-C45, target concentration 1000, second column): 67; Phage library screen NGS readout, BLANK (RNF31 PUB domain; column 1 of 5): 0; Phage library screen NGS readout, BLANK (RNF31 PUB domain; column 2 of 5): 0; Phage library screen NGS readout, BLANK (RNF31 PUB domain; column 3 of 5): 0; Phage library screen NGS readout, BLANK (RNF31 PUB domain; column 4 of 5): 0; Phage library screen NGS readout, BLANK (RNF31 PUB domain; column 5 of 5): 0
